Data: patent US20110271358A1 (Dana-Farber, published 2011)
Residue numbers refer to the chain shown, from its start.

T1: human Fc-PD-L2 (R&D systems) (human, UniProt Q9BQ51 20-219)
T1 construct: Bought Fc fusion coated on the ELISA plate; also called human PD-L2; not shown: Fc part of the bought fusion protein
T1 sequence: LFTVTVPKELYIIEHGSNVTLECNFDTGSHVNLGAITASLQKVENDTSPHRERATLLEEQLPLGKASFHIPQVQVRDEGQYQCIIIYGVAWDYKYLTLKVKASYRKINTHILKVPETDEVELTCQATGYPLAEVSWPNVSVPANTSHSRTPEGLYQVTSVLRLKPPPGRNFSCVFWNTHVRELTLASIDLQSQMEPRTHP

B1: 24F.10C12 composite, human antibody VH2/VK2 (antibody, V domains shown)
VH: QVQLVQSGAEVKKPGASVKMSCKASGYTFTGYTMHWVKQAPGQGLEWIGYINPRSGYTEYNQKFKDRTTLTADKSTSTAYMELSSLRSEDTAVYYCARPWFAYWGQGTLVTVSS
VL: DIVMTQSPASLSVTPGEKVTITCKSSQSLLNSGNQKNYLTWYQQKPGQPPKLLIYWASTRESGVPDRFTGSGSGTDFTLTISSLQAEDVAVYYCQNDYSYPLTFGQGTKLEIK
notes: V regions cloned into vectors containing human constant regions (quantified against an IgG1/kappa standard; isotype not expressly stated)
B2: 24F.10C12 composite, human antibody VH4/VK4 (antibody, V domains shown)
VH: B1 VH with M20V, K38R
VL: B1 VL with S10F, T69S
notes: as for B1
B3: 24F.10C12 composite, human antibody VH2/VK3 (antibody, V domains shown)
VH: B1 VH
VL: B1 VL with S10F
notes: as for B1
B4: 24F.10C12 composite, human antibody VH4/VK2 (antibody, V domains shown)
VH: B1 VH with M20V, K38R
VL: B1 VL
notes: as for B1
B5: EH12.2H7 composite, human antibody VH3/VK3 (antibody, V domains shown)
VH: QVQLVQSGHEVKQPGASVKMSCKASGYSFTSSWIHWVKQAPGQGLEWIGYIYPSTGFTEYNQKFKDRATLTADKSTSTAYMELSSLRSEDTAVYYCARWRDSSGYHAMDYWGQGTLVTVSS
VL: EIVLTQSPATLSLSPGQRLTISCRASQSVSTSGYSYMHWYQQKPDQSPKLLIKFGSNLESGIPARFSGSGSGTDFTLTISSLEPEDFATYYCQHSWEIPYTFGQGTKLEIK
notes: as for B1
B6: EH12.2H7 composite, human antibody VH3/VK4 (antibody, V domains shown)
VH: B5 VH
VL: B5 VL with E1D, T89V
notes: as for B1
B7: EH12.2H7 composite, human antibody VH4/VK4 (antibody, V domains shown)
VH: B5 VH with K38R
VL: B5 VL with E1D, T89V
notes: as for B1
B8: EH12.2H7 composite, human antibody VH4/VK3 (antibody, V domains shown)
VH: B5 VH with K38R
VL: B5 VL
notes: as for B1
B9: mouse anti-human PD-1 antibody EH12.2H7 (antibody, V domains shown)
VH: QVQLQQSGAELAKPGASVQMSCKASGYSFTSSWIHWVKQRPGQGLEWIGYIYPSTGFTEYNQKFKDKATLTADKSSSTAYMQLSSLTSEDSAVYYCARWRDSSGYHAMDYWGQGTSVTVSS
VL: DIVLTQSPASLTVSLGQRATISCRASQSVSTSGYSYMHWYQQKPGQPPKLLIKFGSNLESGIPARFSGSGSGTDFTLNIHPVEEEDTATYYCQHSWEIPYTFGGGTKLEIK
notes: Mouse monoclonal antibody; also called Biotin-EH12.2H7
B10: mouse anti-human PD-L2 antibody 24F.10C12 (antibody, V domains shown)
VH: QVQLQQSAAELARPGASVKMSCKASGYTFTGYTMHWVKQRPGQGLEWIGYINPRSGYTEYNQKFKDKTTLTADKSSSTAYMQLSSLTSEDSAVYYCARPWFAYWGQGTLVTVSA
VL: B1 VL with A9S, S12T, P15A, I21M, T22S, L84V, V89L, Q106A, I112L
notes: Mouse monoclonal antibody; also called Biotin-24F.10C12
B11: 29E.2A3 composite, human antibody VH2/VK2 (antibody, V domains shown)
VH: EVQLVQSGAEVKKPGASVKMSCKASGYTFTSYVMHWVKQAPGQRLEWIGYVNPFNDGTKYNEMFKGRATLTSDKSTSTAYMELSSLRSEDTAVYYCARQAWGYPWGQGTLVTVSS
VL: DIVLTQSPATLSLSPGERATLSCRATESVEYYGTSLVQWYQQKPGQPPKLLIYAASSVDSGVPSRFSGSGSGTDFTLTINSLEAEDAAMYFCQQSRRVPYTFGQGTKLEIK
notes: as for B1
B12: 29E.2A3 composite, human antibody VH4/VK2 (antibody, V domains shown)
VH: B11 VH with M20V, K38R
VL: B11 VL
notes: as for B1
B13: 29E.2A3 composite, human antibody VH2/VK1 (antibody, V domains shown)
VH: B11 VH
VL: B11 VL with T10S, S12A, A84E
notes: as for B1
B14: mouse anti-human PD-L1 antibody 29E.2A3 (antibody, V domains shown)
VH: EVQLQQSGPELVKPGASVKMSCKASGYTFTSYVMHWVKQKPGQGLEWIGYVNPFNDGTKYNEMFKGKATLTSDKSSSTAYMELSSLTSEDSAVYYCARQAWGYPWGQGTLVTVSA
VL: DIVLTQSPASLAVSLGQRATISCRATESVEYYGTSLVQWYQQKPGQPPKLLIYAASSVDSGVPARFSGSGSGTDFSLTIHPVEEDDIAMYFCQQSRRVPYTFGGGTKLEIK
notes: Mouse monoclonal antibody; also called Biotin-29E.2A3

Biological target: T1, human Fc-PD-L2 (R&D systems)
Test: competition ELISA on coated human Fc-PD-L2; IC50 against mouse 24F.10C12

| fold reduced binding compared to the mouse reference | Binder |
| --- | --- |
| 1.13 fold | B1 |
| 1.13 fold | B2 |
| 1.13 fold | B3 |
| 1.13 fold | B4 |

Biological target: T2, human Fc-PD-1 (R&D systems) (human, UniProt Q15116 25-167)
T2 construct: Bought Fc fusion coated on the ELISA plate; also called human PD-1; not shown: Fc part of the bought fusion protein
T2 sequence (Q15116 25-167 limits assumed): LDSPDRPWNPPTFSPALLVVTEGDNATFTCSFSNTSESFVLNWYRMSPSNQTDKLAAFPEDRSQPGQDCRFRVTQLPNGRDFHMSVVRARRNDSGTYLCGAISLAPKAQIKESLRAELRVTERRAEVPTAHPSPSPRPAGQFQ
Test: competition ELISA on coated human Fc-PD-1; competitor biotinylated EH12.2H7

| IC50 | Binder |
| --- | --- |
| 0.93 µg/mL | B5 |
| 0.74 µg/mL | B6 |
| 0.91 µg/mL | B7 |
| 0.57 µg/mL | B8 |
| 1.23 µg/mL | B9 |

Biological target: T2, human Fc-PD-1 (R&D systems)
Test: competition ELISA on coated human Fc-PD-1; IC50 against mouse EH12.2H7

| fold increase in binding compared to the mouse reference | Binder |
| --- | --- |
| 2 fold | B8 |

Biological target: T1, human Fc-PD-L2 (R&D systems)
Test: competition ELISA on coated human Fc-PD-L2; competitor biotinylated 24F.10C12

| IC50 | Binder |
| --- | --- |
| 0.52 µg/mL | B10 |
| 0.58 µg/mL | B1 |
| 0.58 µg/mL | B2 |
| 0.59 µg/mL | B3 |
| 0.6 µg/mL | B4 |

Biological target: T3, human Fc-PD-L1 (R&D systems) (human, UniProt Q9NZQ7 19-239)
T3 construct: Bought Fc fusion coated on the ELISA plate; also called human PD-L1; not shown: Fc part of the bought fusion protein
T3 sequence (Q9NZQ7 19-239 limits assumed): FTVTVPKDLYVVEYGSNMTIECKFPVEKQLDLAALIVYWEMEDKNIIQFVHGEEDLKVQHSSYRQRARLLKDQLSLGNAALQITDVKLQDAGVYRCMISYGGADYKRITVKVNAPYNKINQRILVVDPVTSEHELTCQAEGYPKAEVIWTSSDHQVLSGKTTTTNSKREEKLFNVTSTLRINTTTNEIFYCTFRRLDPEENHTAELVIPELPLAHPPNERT
Test: competition ELISA on coated human Fc-PD-L1; competitor biotinylated 29E.2A3

| IC50 | Binder |
| --- | --- |
| 0.49 µg/mL | B11 |
| 0.38 µg/mL | B12 |
| 0.27 µg/mL | B13 |
| 0.28 µg/mL | B14 |

Biological target: T3, human Fc-PD-L1 (R&D systems)
Test: competition ELISA on coated human Fc-PD-L1; IC50 against mouse 29E.2A3

| fold reduced binding compared to the mouse reference | Binder |
| --- | --- |
| 1.75 fold | B11 |
| 1.36 fold | B12 |
